Data: IntAct's records for PubMed 16606821

B1: Insulin-induced gene 1 protein (Homo sapiens), O15503-1 (parent)
chain: MPRLHDHFWSCSCAHSARRRGPPRASAAGLAAKVGEMINVSVSGPSLLAAHGAPDADPAPRGRSAAMSGPEPGSPYPNTWHHRLLQRSLVLFSVGVVLALVLNLLQIQRNVTLFPEEVIATIFSSAWWVPPCCGTAAAVVGLLYPCIDSHLGEPHKFKREWASVMRCIAVFVGINHASAKLDFANNVQLSLTLAALSLGLWWTFDRSRSGLGLGITIAFLATLITQFLVYNGVYQYTSPDFLYIRSWLPCIFFSGGVTVGNIGRQLAMGVPEKPHSD
partner: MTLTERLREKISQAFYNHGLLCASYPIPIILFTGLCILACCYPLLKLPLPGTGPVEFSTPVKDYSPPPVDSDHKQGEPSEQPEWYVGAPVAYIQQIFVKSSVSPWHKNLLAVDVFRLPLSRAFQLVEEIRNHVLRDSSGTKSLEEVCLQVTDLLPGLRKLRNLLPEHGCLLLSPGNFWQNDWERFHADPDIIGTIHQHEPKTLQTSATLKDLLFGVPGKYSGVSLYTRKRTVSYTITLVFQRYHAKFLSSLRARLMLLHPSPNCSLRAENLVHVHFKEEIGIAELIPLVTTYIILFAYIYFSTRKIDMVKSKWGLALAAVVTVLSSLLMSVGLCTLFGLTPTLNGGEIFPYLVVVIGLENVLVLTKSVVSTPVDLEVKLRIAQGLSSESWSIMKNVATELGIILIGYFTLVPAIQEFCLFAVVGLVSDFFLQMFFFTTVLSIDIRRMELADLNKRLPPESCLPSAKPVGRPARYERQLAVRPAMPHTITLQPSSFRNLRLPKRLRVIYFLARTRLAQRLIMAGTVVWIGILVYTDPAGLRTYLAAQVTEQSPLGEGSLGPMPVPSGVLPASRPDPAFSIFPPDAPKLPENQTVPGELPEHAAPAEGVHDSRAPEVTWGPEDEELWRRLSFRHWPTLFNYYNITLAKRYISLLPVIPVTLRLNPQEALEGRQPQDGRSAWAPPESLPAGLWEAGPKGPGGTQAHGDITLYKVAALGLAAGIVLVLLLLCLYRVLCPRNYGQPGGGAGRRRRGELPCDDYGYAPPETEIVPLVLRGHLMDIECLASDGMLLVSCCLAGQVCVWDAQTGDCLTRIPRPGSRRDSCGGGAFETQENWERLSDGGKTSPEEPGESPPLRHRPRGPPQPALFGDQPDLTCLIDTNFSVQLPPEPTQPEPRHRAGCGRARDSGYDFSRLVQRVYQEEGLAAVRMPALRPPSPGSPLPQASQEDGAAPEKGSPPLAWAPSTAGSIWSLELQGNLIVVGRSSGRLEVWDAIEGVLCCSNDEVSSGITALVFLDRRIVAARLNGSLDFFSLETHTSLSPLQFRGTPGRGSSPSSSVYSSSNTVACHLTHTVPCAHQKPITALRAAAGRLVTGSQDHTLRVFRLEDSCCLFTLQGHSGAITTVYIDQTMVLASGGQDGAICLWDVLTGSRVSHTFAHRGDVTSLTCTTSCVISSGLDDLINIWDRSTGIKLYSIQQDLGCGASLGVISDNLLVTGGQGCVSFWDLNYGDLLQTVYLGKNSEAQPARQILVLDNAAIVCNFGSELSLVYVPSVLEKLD

Variants of: B1
Settings: with scap_crigr SCAP

Variant | effect of a mutation on the interaction
D205A | disrupting interaction strength
